From a protein production outcome set (Wang et al. 2014)

Experiment: label from the status in PepcDB records

Sequence | protein production
QSTGQVTLGVLTDMSSVYADSAGKGSVAAVQLAIEDVGGKALGQPVKLVSADYQMKTDVALSIAREWFDRDGVDAIFDVVNSGTALAINNLVKDKKKLAFITAAAADQIGGTECNGYGIGFLYNFTSIVKTVVQAQLAKGYKTWFLMLPDAAYGDLMNAAIRRELTAGGGQIVGSVRFPFETQDFSSYLLQAKASGAQLIVSTSGGAANINIMKQAREFGLPSKTQKVGGMIDILTDVKSAGLRVMQGQEYATSFYWNMDDRTRAFAKRFYAKMGKMPTNNQAGGYSAALQYLKAVNAIGSKDPQKVFAYLKTIKFDDAVTRHGTLRPGGRLVRDMYLVRAKKPEDQKGDWDYYDVVATIGPEQAFGPLSESRCAMDK | not failed
NCKKIGEDSKIIIRQITDNDLELLMAWRSNPLIYKFFYIQKEPLKWEEHYSWWMSRENRVDWIILLRENNTIRKVGSVNVSQLNTDNPEIGILIGEFFLWGKHIGRHSVSLVLKWLKNIGYKKAHARILENNIRSIKLFESLGFKKTKKGRENEWIYEVNL | not failed
MEDDCEELQVPVGTLTSIGFSISNNNDRDKMSVLEVEAPNQVTDSRLGLPNPDSVCRTCGSKDRKVCEGHFGVINFAYSIINPYFLKEVAALLNKICPGCKYIRKKQFQITEDQPERCRYCTLNTGYPLMKFRVTTKEVFRRSGIVVEVNEESLMKLKKRGVLTLPPDYWSFLPQDSNIDESCLKPTRRIITHAQVYALLLGIDQRLIKKDIPMFNSLGLTSFPVTPNGYRVTEIVHQFNGARLIFDERTRIYKKLVGFEGNTLELSSRVMECMQYSRLFSETVSSSKDSANPYQKKSDTPKLCGLRFMKDVLLGKRSDHTFRTVVVGDPSLKLNEIGIPESIAKRLQVSEHLNQCNKERLVTSFVPTLLDNKEMHVRRGDRLVAIQVNDLQTGDKIFRSLMDGDTVLMNRPPSIHQHSLIAMTVRILPTTSVVSLNPICCLPFRGDFDGDCLHGYVPQSIQAKVELDELVALDKQLINRQNGRNLLSLGQDSLTAAYLVNVEKNCYLNRAQMQQLQMYCPFQLPPPAIIKASPSSTEPQWTGMQLFGMLFPPGFDYTYPLNNVVVSNGELLSFSEGSAWLRDGEGNFIERLLKHDKGKVLDIIYSAQEMLSQWLLMRGLSVSLADLYLSSDLQSRKNLTEEISYGLREAEQVCNKQQLMVESWRDFLAVNGEDKEEDSVSDLARFCYERQKSATLSELAVSAFKDAYRDVQALAYRYGDQSNSFLIMSKAGSKGNIGKLVQHSMCIGLQNSAVSLSFGFPRELTCAAWNDPNSPLRGAKGKDSTTTESYVPYGVIENSFLTGLNPLESFVHSVTSRDSSFSGNADLPGTLSRRLMFFMRDIYAAYDGTVRNSFGNQLVQFTYETDGPVEDITGEALGSLSACALSEAAYSALDQPISLLETSPLLNLKNVLECGSKKGQREQTMSLYLSEYLSKKKHGFEYGSLEIKNHLEKLSFSEIVSTSMIIFSPSSNTKVPLSPWVCHFHISEKVLKRKQLSAESVVSSLNEQYKSRNRELKLDIVDLDIQNTNHCSSDDQAMKDDNVCITVTVVEASKHSVLELDAIRLVLIPFLLDSPVKGDQGIKKVNILWTDRPKAPKRNGNHLAGELYLKVTMYGDRGKRNCWTALLETCLPIMDMIDWGRSHPDNIRQCCSVYGIDAGRSIFVANLESAVSDTGKEILREHLLLVADSLSVTGEFVALNAKGWSKQRQVESTPAPFTQACFSSPSQCFLKAAKEGVRDDLQGSIDALAWGKVPGFGTGDQFEIIISPKVHGFTTPVDVYDLLSSTKTMRRTNSAPKSDKATVQPFGLLHSAFLKDIKVLDGKGIPMSLLRTIFTWKNIELLSQSLKRILHSYEINELLNERDEGLVKMVLQLHPNSVEKIGPGVKGIRVAKSKHGDSCCFEVVRIDGTFEDFSYHKCVLGATKIIAPKKMNFYKSKYLKNGTLESGGFSENP | failed
MTPFPAYVPPDFTRPDLAAAPPVRVAEAPGSGVLPAGFHATSNYPEYVHLGGGRWLLASGSRMDAVLVLDGDMLRVVEPRLVRRGDRVVVGRTENGEEGIYVHTTGFDAPAGAGGDKFTFRSRGTRESPFSRSYEELYDILRHDRDHGHIVWVLGPAVAFDRDSRAAMAGLIGGGYCHALLAGNALATHDLEAALFHTGLGQDIYTQALVAGGHYHHLDVINEVLRHGSLERAIAELGIRDGIIRACLEHRVPVVLAGSIRDDGPLPDVITDSRQAQDAMRAHARRATTVIALATQLHAIAVGNMTPSYRVLDDGTVRPVYFYIVDMSEFGADKLANRGSGQARAILTNVQDFMVNLWNNLKG | failed
MIIQKIKQFFVGSERTIKAKKNIIASLLVKMLSIIISLLLVPVTLNYLNSYEYGVWLTLSSILVWINYFDIGLGNGLRNRLTEALAIGDYEKGRIYISTTFAILLILMLTIYLLYAFLQHFISWKSILNISTNHAFTDLNYLVLIVFAFFCISFVLKFVGIIYLAKQQPVINDLFGAIANLMSLIVIYILTLVTDGNLTYVAIVFSSAPAVVYLLAYPFTFYYKYPNLAPKISAINFHYAKGLLGLGFQFFIIQVSCLLMFATSNILIAQLCGPEEVTPYNIAYKYFSVITMGFTIVITPFWSAVTDALIKEDFLWIRKGIINMLKVWLFFLLCSLVMLFVASWVYSFWVNMSIPFYLSLLLFVYISIFNWNNMFAYFVNGMGKIRLQLYCSVISGGIFIPLAILLGQLWGLVGIIGSMCFSLLVSAVLMPIQLKLLLAKSATGIWNK | failed
MANIFIENSLLFALTQIVPLLYIVTTALYGIHFFKETPLAGSLKQPALILTVVTHVADLGLLTSTAGYRLSYSAYNLMSMVALTLAITYMFIEFTTKSDKTGFFVIAFAAGSALFSSILSSQTVDSGLAFSGLGIGVHLFAAIFGFSSVAIAGLYSGMYLVLFRQIRLNRFGLLFQRLPNLETLEMLIMHAVAFGFFFLSVTIVAGVLEQHASKEVINLFEPRLVSLFVIWALYGISLVIKPLFGWDIKHMAVLLIALFVLVTALLFIMSLVTPSFHGMSI | failed
MRDPRLAPFRAPALAFAALLLVSAASGAVLFVLKLGTTAARVQEFYLGSEARFTAPRTLGGILEVAVPHLVAVPLVLFAVAHLVAFTRALRPRPYAALVRLSFGCALAGALAGLGIRFVAPWLAWVKIGAFVGLEAALLAWAALLVGLFLPDRAEAHARRAAAADGASPQRVPGAPRRD | failed
MDSDADGGETVSNFSENSTDFEETEEYIVERILDRRHYMGQLQYLVKWLDYSDEDNTWESAADLDCHSLIDSIESQKSLKRGQELNNQYETKAKRLKIDP | failed
MIRKFSLIMATYGRKDEVGCFLESLMNSNYPMDKVEVIIVDQNKEIDLEPIISKYKEKIKVVHIKSNERGLALNRNKGLEIATGDIIAFPDDDCEYLVDTLNIVNNYFENEHCDLLMGRIVERNGEDSLREWPKEKIEINKNNFYTKCSSVTMFLDSKKCFVKFNDQLGAGKYFGACEDADLIYKNCKKGLKIIYNPELQIYHPHYDSNSNMDDKKIYSYGLGFGAMVKSNFDFSMLILFIKAEGYHFLKSLIYLITFKTTKSKRSWLAFKSRIKGFFEYKN | failed
MTDNRKFEIVADTELPGTPERVWQAVTKDTPAWMFPTDQWPDVKTTEEYPSHLVSRMDGPDGWFNQLEHVLEPLEGGRAKLHYVHSGIFADNWDEQYDGASKHTEFYLHTLGQYLQHFDGKPVVFTDIQAPPSSQAPDGFVQLKQALGVDGLPTGTSVDVDIDGVGRLSAEVDFSNENFLGLRTADTMYRFFGRNVFGAPVGMTVHEFSGSGDSELTAKAWGAFLEKVYALEHHHHHH | failed
MKDNPISPTIPLDQDGVHHGFLKLPYSRDDSAWGSVMIPITVIQNGAGKTALLTGANHGDEYEGPVALQELAATTRAEDVTGRLIIVPYFNYPAFRASARTSPIDRGNLNRAFPGRPDGTVTQKIADYFQRTLLPMADVAVDFHSGGKTLDFVPFAAAHILEDKVLQDACFAAMQAFNAPYSVQLLEIDSEGMYDTAVEEMGKVLVTTELGGGGMSTARSNAIAKKGLRNVLIHFGILQGEMQIDPSVTLDMPDGDCYLFSEHDGLFEIMIDLGEPVQEGDLVARVWSPDRTGEAPVEYRARRSGVLISRHFPGMIKSGDCAAVIGVVEG | not failed
MDIEERINLVLKKPTEEVLTVENLRHLFEIGAPLQHYIGFEISGYIHLGTGLMAGAKIADFQKAGIKTRVFLADWHSWINDKLGGDLEVIQEVALKYFKVGMEKSIEVMGGDPKKVEFVLASEILEKGDYWQTVIDISKNVTLSRVMRSITIMGRQMGEAIDFAKLIYPMMQVADIFYQGVTIAHAGMDQRKAHVIAIEVAQKLRYHPIVHEGEKLKPVAVHHHLLLGLQEPPKWPIESEEEFKEIKAQMKMSKSKPYSAVFIHDSPEEIRQKLRKAFCPAREVRYNPVLDWVEYIIFREEPTEFTVHRPAKFGGDVTYTTFEELKRDFAEGKLHPLDLKNAVAEYLINLLEPIRRYFEKHPEPLELMRSVKITR | not failed
MKIYHKFLLYQNKLLKPYVRILLGLVEALTYLASLLLIVGVVYEHGFPLSPVEVQQIQILYKAVWIIFLIDVTLHISLEYRNTKKQYRRLAWILSVLLYLTLVPVIFHRPEEEGAILQVWEFLHGKFYHLILLLVFSLLNLSNGLVRLLGRRTNPSLILAVSFMAIILIGTGLLMLPRCTVNGITWVDSLFTATSAVCVTGLVPVDVSTTFTTSGLVVIILLIQIGGLGVMTLTSFFAMFFMGNTSIYNQLVVRDMVSSNSLGSLLSTLLYILGFTLVIEGIGMVSIWFSIHDTLGMNLEEELAFAAFHSISAFCNAGFSTLSGNLGNSMVMTNHNWLFISVSLLIILGGIGFPILVNFKDIVLYHLRHVWTFVRTRKLERHKMPHLYNLNTKIVLIMTFLLLLIGTLAILAFEWNASFAGMSVADKWTQAFFNATCPRTAGFSSVDLASLSVQTLLVYLFLMWVGGGSQSTAGGVKVNAFAVVVLNLVAVLRGSERVEVFGRELSHDSIRRSNATVVMSLGVLFLFIFILSILEPKASLLALTFECVSALSTVGSSLNLTPQLCDASKLLVSLLMFIGRVGLITLMLGIVKQKKNTKYRYPSDNIIIN | failed
MTRSKKFIIMITTVIVIIAFIFLALFAWKIYAERNYNNTNIREAAQFNPLIRETDYYVQVSDPLKKNGKNQVGAYTYMTDGFDKDGVGHTVTFNGMKKLKKGAYLKVSLFLGEAKSYNEISKDKVPHKPLKKLEMQQLEHHHHHH | not failed
MRQYNPPAMNIPQEVARRRTFAIISHPDAGKTTLTEKLLLFAGAIQIAGSVKARKASRHASSDWMEIEKQRGISVASSVMQMEYRDCVINLLDTPGHQDFSEDTYRVLTAVDAALMVIDAANGVEPQTIRLLQVCRARNTPIITFINKLDREVREPLELLSEIEGHLGMDTVPFSWPVGMGKAFGGVFDIRRNRMRIFRAGQERRGEDDEFIDGLDNPEIPRRFGAAFAQASGEIELINEAAPAFDREAFLAGKQTPVFFGSAINNFGVQEVLDALVDQAPAPGPRQALEREVRPDEPKFTGVVFKVQANMDPAHRDRVAFVRVSSGRFERGMRLKVARTGKEMRPNNVVSFLSQRRELLDEAYAGDVIGIPNHGVLQLGDVLTEGESLRFTGLPFFAPELFQAVEVKDPLRTKQLRVGLTQLGEEGAIQVFRPEAAGGALLLGAVGQLQFEVVAHRLKTEYGVDARMMPSRYTSARWITSDDPRALRKFMDANAAHIAYDVVDAAAFLITSPAQLRVAEDLYPNVKFHALREHGGKVFGDKA | failed
MKSENVNKRDEYQRVFSCFDKSHQGKVSVSTIERCVDAIKSGKRAVVDQEDTTNPNPEESTDDKSLELEDFVKLVEEGEEADKEKDLKEAFKLYEESEGITPKSLKRMLSLLGESKSLKDCEVMISQFDINRDGIINFDEFRAMMQ | failed
MNYQLFKHSDENASYVVFSSGLGGHGSFWQAQLDVFRQYFHVLIYDQEGCHASSELLADGYSFEHLALQVKQLLQQLNIVRFHFIGHALGGFIGIELAHRYASETCQLLSLTLINAWQQLDPHTLRCFTTRIALLQHAGTAAYLHAQALFLYPPLWISEHTALLEQQEAKMQSDFPPHANVLKRLNALMQYQVNTARIDTLKQLPVCLIANQDDMLVPYVQSLNLWKKLPDAQLKLLPYGGHASTVTEARQVNQLMLDFLK | failed
